Source: PMC3323580, “Lack of Evidence from Studies of Soluble Protein Fragments that Knops Blood Group Polymorphisms in Complement Receptor-Type 1 Are Driven by Malaria” (PLoS ONE, 2012)

Molecular target: T1, C1q, classical complement pathway protein (UniProt P02745 23-245; P02746 28-253; P02747 29-245)
T1 construct: Amine-coupled to a CM5 chip for SPR; in solution (140 ng/ml) for ELISA; source: bought: Complement Technology (Texas)
Assay: SPR; C3b (1620 RU), C4b (1518 RU) and C1q (2125 RU) amine-coupled on three flow cells of one CM5 chip; CR1 fragments flowed at 30 µl/min, Biacore T100, 25°C, HBS-EP pH 7.4 (10 mM Hepes, 150 mM saline, 3 mM EDTA, 0.05% polysorbate 20); steady-state fit, one-to-one model; duplicates
Conditions: both partners purified

T1 sequence (P02745 23-245, chain 1 of 3): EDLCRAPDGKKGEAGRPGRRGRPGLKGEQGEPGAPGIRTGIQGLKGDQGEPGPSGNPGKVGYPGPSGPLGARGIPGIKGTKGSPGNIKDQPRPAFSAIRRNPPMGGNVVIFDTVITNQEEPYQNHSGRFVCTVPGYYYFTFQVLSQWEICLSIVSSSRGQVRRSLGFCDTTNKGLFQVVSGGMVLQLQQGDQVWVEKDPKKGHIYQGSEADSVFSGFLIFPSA
T1 sequence (P02746 28-253, chain 2 of 3): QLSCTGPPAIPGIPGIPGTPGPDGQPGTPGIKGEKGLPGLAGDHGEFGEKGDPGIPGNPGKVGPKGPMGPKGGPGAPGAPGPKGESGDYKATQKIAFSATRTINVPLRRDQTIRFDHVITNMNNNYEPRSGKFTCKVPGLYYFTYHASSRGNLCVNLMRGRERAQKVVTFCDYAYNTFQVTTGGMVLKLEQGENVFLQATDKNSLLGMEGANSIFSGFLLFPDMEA
T1 sequence (P02747 29-245, chain 3 of 3): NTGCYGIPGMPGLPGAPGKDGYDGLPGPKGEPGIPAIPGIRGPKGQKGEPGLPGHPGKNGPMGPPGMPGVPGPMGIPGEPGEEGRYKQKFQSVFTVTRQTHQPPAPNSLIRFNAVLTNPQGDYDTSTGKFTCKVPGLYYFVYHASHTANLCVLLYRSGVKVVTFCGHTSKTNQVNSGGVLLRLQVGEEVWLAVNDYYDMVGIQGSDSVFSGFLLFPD

B1: soluble CR1 (sCR1), full-length ectodomain of complement receptor-type 1 (receptor)
chain: not shown
notes: complement receptor-type 1 (CR1, CD35), human, soluble full-length ectodomain; also called full-length sCR1; source: a gift from Henry Marsh, Celdex Pharmaceuticals
Q: B1 was tested. Which Kd did it give?
A: 8 ± 1 µM
